Assay results from publication PMC10177266, “Interaction between Human Papillomavirus-Encoded E6 Protein and AurB Induces Cell Immortalization and Proliferation—A Potential Target of Intervention” (Cancers, 2023).

Columns and labels:
Assay in all cases: pull-down; purified GST fusion proteins on glutathione agarose incubated with in vitro-translated Flag-AurB for 1 h at room temperature; washed thrice with PBS with 0.1% Tween 20; bound AurB detected by western blot, quantitated with ImageJ and normalized to the GST fusion protein
[1] = target: GST-HPV16 E6 with its C-terminus PDZ binding motif depleted (E6ΔPBM) (human papillomavirus type 16) (UniProt P03126)
GST-HPV16 E6 T140A = target: T1, GST-HPV16 E6 T140A (human papillomavirus type 16, UniProt P03126 1-158, T140A); details: one partner purified
T1 construct: E6 oncoprotein of human papillomavirus type 16 with T140A; source: E. coli, purified on glutathione-conjugated agarose resin

GST-HPV16 E6 S89A = target: T2, GST-HPV16 E6 S89A (human papillomavirus type 16, UniProt P03126 1-158, S89A); details: one partner purified
T2 construct: E6 oncoprotein of human papillomavirus type 16 with S89A; source: E. coli, purified on glutathione-conjugated agarose resin

GST-HPV16 E6 S145A = target: T3, GST-HPV16 E6 S145A (human papillomavirus type 16, UniProt P03126 1-158, S145A); details: one partner purified
T3 construct: E6 oncoprotein of human papillomavirus type 16 with S145A; source: E. coli, purified on glutathione-conjugated agarose resin

GST-HPV16 E6 S150A = target: T4, GST-HPV16 E6 S150A (human papillomavirus type 16, UniProt P03126 1-158, S150A); details: one partner purified
T4 construct: E6 oncoprotein of human papillomavirus type 16 with S150A; source: E. coli, purified on glutathione-conjugated agarose resin

| Molecule | fold of bound AurB against E6 wild type [1] [fold] | bound AurB, percent of E6 wild type (GST-HPV16 E6 T140A) [%] | bound AurB, percent of E6 wild type (GST-HPV16 E6 S89A) [%] | bound AurB, percent of E6 wild type (GST-HPV16 E6 S145A) [%] | bound AurB, percent of E6 wild type (GST-HPV16 E6 S150A) [%] |
| --- | --- | --- | --- | --- | --- |
| Flag-tagged Aurora kinase B (from UniProt Q96GD4 1-344) (enzyme) | 3 | – | – | – | – |
| Flag-tagged Aurora kinase B (enzyme, Aurora kinase B, human, from pcDNA:Flag-Aurora kinase B; the functional rows use this molecule for that purified protein; also called FL-AurB; Flag-AurB; source: in vitro translated (TNT Coupled Reticulocyte Lysate System, Promega)) MAQKENSYPWPYGRQTAPSGLSTLPQRVLRKEPVTPSALVLMSRSNVQPTAAPGQKVMENSSGTPDILTRHFTIDDFEIGRPLGKGKFGNVYLAREKKSHFIVALKVLFKSQIEKEGVEHQLRREIEIQAHLHHPNILRLYNYFYDRRRIYLILEYAPRGELYKELQKSCTFDEQRTATIMEELADALMYCHGKKVIHRDIKPENLLLGLKGELKIADFGWSVHAPSLRRKTMCGTLDYLPPEMIEGRMHNEKVDLWCIGVLCYELLVGNPPFESASHNETYRRIVKVDLKFPASVPMGAQDLISKLLRHNPSERLPLAQVSAHPWVRANSRRVLPPSALQSVA | – | 45 | 44 | 27 | 57 |
